# In PMC9482650, “Quantitative fragmentomics allow affinity mapping of interactomes” (Nature Communications, 2022):
# T1: RHPN1, Q8TCX5
# T1 sequence (Q8TCX5 508-602, limits assumed, looked up): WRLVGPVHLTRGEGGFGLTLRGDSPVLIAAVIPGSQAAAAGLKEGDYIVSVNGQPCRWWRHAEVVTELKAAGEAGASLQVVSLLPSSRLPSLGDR
# T2: LNX2_2, Q8N448
# T2 sequence (Q8N448 334-432, limits assumed, looked up): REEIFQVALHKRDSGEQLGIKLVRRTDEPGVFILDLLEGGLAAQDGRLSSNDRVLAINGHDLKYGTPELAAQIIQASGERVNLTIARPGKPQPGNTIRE
# T3: DVL3, Q92997
# T3 sequence (Q92997 244-331, limits assumed, looked up): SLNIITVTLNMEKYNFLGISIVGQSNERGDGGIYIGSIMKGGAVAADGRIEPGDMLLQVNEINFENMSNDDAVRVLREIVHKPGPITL
# T4: GRIP1_5, Q9Y3R0
# T4 sequence (Q9Y3R0 568-668, limits assumed, looked up): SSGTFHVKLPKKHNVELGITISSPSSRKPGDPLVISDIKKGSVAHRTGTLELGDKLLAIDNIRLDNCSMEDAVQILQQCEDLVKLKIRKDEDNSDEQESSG
# T5: APBA2_1, Q99767
# T5 sequence (Q99767 563-664, limits assumed, looked up): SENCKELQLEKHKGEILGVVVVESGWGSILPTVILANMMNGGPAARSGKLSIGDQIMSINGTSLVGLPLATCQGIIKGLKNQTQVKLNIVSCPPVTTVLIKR
# T6: GRIP1_3, Q9Y3R0
# T6 sequence (Q9Y3R0 247-346, limits assumed, looked up): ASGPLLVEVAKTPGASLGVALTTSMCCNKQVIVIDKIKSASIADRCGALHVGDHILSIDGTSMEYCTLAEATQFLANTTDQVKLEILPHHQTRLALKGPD
# T7: HTRA4, P83105
# T7 sequence (P83105 378-476, limits assumed, looked up): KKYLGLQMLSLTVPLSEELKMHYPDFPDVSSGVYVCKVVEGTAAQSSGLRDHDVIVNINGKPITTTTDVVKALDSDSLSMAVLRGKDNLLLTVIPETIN
# T8: DLG3_1, Q92796
# T8 sequence (Q92796 125-227, limits assumed, looked up): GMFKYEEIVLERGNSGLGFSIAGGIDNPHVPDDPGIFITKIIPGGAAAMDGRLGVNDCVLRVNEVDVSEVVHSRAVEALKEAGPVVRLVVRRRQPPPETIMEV
# T9: ARHGEF11, O15085
# T9 sequence (O15085 42-136, limits assumed, looked up): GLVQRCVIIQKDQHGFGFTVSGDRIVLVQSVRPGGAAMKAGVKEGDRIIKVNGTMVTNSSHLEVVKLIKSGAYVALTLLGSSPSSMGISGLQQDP
# T10: SNTG1, Q9NSN8
# T10 sequence (Q9NSN8 52-150, limits assumed, looked up): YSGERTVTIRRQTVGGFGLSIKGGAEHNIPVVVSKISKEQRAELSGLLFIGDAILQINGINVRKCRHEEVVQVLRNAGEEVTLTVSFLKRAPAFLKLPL
# T11: NHERF3_1, Q5T2W1
# T11 sequence (Q5T2W1 4-100, limits assumed, looked up): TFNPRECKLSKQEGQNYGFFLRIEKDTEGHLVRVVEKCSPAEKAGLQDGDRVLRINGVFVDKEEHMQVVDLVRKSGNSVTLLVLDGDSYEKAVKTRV
# Molecular target: T1, RHPN1, Q8TCX5
# Experiment: holdup assay
# Parameters: key: below the threshold = too weak to quantify, mostly under pKd 3.1 to 4
# Conditions: plain residues with an end cap or a label only (N-terminal biotin on a linker: ttds)
row,Binder,pKd
1,"PVRVCEETSL [OTULIN, Q96BN8]",4.93
2,"FHPLGADSQV [SLC2A1, P11166]",4.29

# Molecular target: Inadl_6, Q8NI35
# Experiment: holdup assay
# Parameters: key: below the threshold = too weak to quantify, mostly under pKd 3.1 to 4
# Conditions: plain residues with an end cap or a label only (N-terminal biotin on a linker: ttds)
# Inadl_6, Q8NI35, sequence (Q8NI35 1058-1167): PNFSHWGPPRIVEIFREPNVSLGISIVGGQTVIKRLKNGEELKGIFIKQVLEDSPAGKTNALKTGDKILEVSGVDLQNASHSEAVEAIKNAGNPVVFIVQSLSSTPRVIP
row,Binder,pKd
1,"PVRVCEETSL [OTULIN, Q96BN8]",4.4
2,"FHPLGADSQV [SLC2A1, P11166]",below the threshold

# Molecular target: T2, LNX2_2, Q8N448
# Experiment: holdup assay
# Parameters: key: below the threshold = too weak to quantify, mostly under pKd 3.1 to 4
# Conditions: plain residues with an end cap or a label only (N-terminal biotin on a linker: ttds)
row,Binder,pKd
1,"PVRVCEETSL [OTULIN, Q96BN8]",below the threshold
2,"FHPLGADSQV [SLC2A1, P11166]",below the threshold

# Molecular target: T3, DVL3, Q92997
# Experiment: holdup assay
# Parameters: key: below the threshold = too weak to quantify, mostly under pKd 3.1 to 4
# Conditions: plain residues with an end cap or a label only (N-terminal biotin on a linker: ttds)
row,Binder,pKd
1,"PVRVCEETSL [OTULIN, Q96BN8]",below the threshold
2,"FHPLGADSQV [SLC2A1, P11166]",below the threshold

# Molecular target: TJP2_1, Q9UDY2
# Experiment: holdup assay
# Parameters: key: below the threshold = too weak to quantify, mostly under pKd 3.1 to 4
# Conditions: plain residues with an end cap or a label only (N-terminal biotin on a linker: ttds)
# TJP2_1, Q9UDY2, sequence (Q9UDY2 24-128): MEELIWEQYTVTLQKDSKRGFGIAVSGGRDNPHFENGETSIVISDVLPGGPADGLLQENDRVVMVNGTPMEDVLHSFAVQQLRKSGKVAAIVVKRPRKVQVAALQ
row,Binder,pKd
1,"PVRVCEETSL [OTULIN, Q96BN8]",below the threshold
2,"FHPLGADSQV [SLC2A1, P11166]",below the threshold

# Molecular target: T4, GRIP1_5, Q9Y3R0
# Experiment: holdup assay
# Parameters: key: below the threshold = too weak to quantify, mostly under pKd 3.1 to 4
# Conditions: plain residues with an end cap or a label only (N-terminal biotin on a linker: ttds)
row,Binder,pKd
1,"PVRVCEETSL [OTULIN, Q96BN8]",3.78
2,"FHPLGADSQV [SLC2A1, P11166]",below the threshold

# Molecular target: MAGI1_1, Q96QZ7
# Experiment: holdup assay
# Parameters: key: below the threshold = too weak to quantify, mostly under pKd 3.1 to 4
# Conditions: plain residues with an end cap or a label only (N-terminal biotin on a linker: ttds)
# MAGI1_1, Q96QZ7, sequence (Q96QZ7 1-106): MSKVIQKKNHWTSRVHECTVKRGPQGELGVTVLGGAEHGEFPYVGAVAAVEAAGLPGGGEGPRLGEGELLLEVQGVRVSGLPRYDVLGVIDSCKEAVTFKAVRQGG
row,Binder,pKd
1,"PVRVCEETSL [OTULIN, Q96BN8]",below the threshold
2,"FHPLGADSQV [SLC2A1, P11166]",below the threshold

# Molecular target: T5, APBA2_1, Q99767
# Experiment: holdup assay
# Parameters: key: below the threshold = too weak to quantify, mostly under pKd 3.1 to 4
# Conditions: plain residues with an end cap or a label only (N-terminal biotin on a linker: ttds)
row,Binder,pKd
1,"PVRVCEETSL [OTULIN, Q96BN8]",below the threshold
2,"FHPLGADSQV [SLC2A1, P11166]",below the threshold

# Molecular target: T6, GRIP1_3, Q9Y3R0
# Experiment: holdup assay
# Parameters: key: below the threshold = too weak to quantify, mostly under pKd 3.1 to 4
# Conditions: plain residues with an end cap or a label only (N-terminal biotin on a linker: ttds)
row,Binder,pKd
1,"PVRVCEETSL [OTULIN, Q96BN8]",below the threshold
2,"FHPLGADSQV [SLC2A1, P11166]",below the threshold

# Molecular target: Inadl_4, Q8NI35
# Experiment: holdup assay
# Parameters: key: below the threshold = too weak to quantify, mostly under pKd 3.1 to 4
# Conditions: plain residues with an end cap or a label only (N-terminal biotin on a linker: ttds)
# Inadl_4, Q8NI35, sequence (Q8NI35 547-651): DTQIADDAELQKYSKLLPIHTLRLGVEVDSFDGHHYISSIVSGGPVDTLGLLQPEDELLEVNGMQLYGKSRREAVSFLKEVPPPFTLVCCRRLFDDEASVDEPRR
row,Binder,pKd
1,"PVRVCEETSL [OTULIN, Q96BN8]",below the threshold
2,"FHPLGADSQV [SLC2A1, P11166]",below the threshold

# Molecular target: T7, HTRA4, P83105
# Experiment: holdup assay
# Parameters: key: below the threshold = too weak to quantify, mostly under pKd 3.1 to 4
# Conditions: plain residues with an end cap or a label only (N-terminal biotin on a linker: ttds)
row,Binder,pKd
1,"PVRVCEETSL [OTULIN, Q96BN8]",below the threshold
2,"FHPLGADSQV [SLC2A1, P11166]",below the threshold

# Molecular target: PDZRN4_1, Q6ZMN7
# Experiment: holdup assay
# Parameters: key: below the threshold = too weak to quantify, mostly under pKd 3.1 to 4
# Conditions: plain residues with an end cap or a label only (N-terminal biotin on a linker: ttds)
# PDZRN4_1, Q6ZMN7, sequence (Q6ZMN7 213-318): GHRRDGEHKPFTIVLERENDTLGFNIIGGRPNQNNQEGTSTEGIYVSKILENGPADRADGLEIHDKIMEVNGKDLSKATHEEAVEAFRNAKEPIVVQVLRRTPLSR
row,Binder,pKd
1,"PVRVCEETSL [OTULIN, Q96BN8]",5.23
2,"FHPLGADSQV [SLC2A1, P11166]",below the threshold

# Molecular target: FRMPD2_3, Q68DX3
# Experiment: holdup assay
# Parameters: key: below the threshold = too weak to quantify, mostly under pKd 3.1 to 4
# Conditions: plain residues with an end cap or a label only (N-terminal biotin on a linker: ttds)
# FRMPD2_3, Q68DX3, sequence (Q68DX3 1073-1166): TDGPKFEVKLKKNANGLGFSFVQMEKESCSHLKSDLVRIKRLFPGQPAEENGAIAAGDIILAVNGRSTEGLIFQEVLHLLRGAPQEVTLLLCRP
row,Binder,pKd
1,"PVRVCEETSL [OTULIN, Q96BN8]",below the threshold
2,"FHPLGADSQV [SLC2A1, P11166]",below the threshold

# Molecular target: LDB3, O75112
# Experiment: holdup assay
# Parameters: key: below the threshold = too weak to quantify, mostly under pKd 3.1 to 4
# Conditions: plain residues with an end cap or a label only (N-terminal biotin on a linker: ttds)
# LDB3, O75112, sequence (O75112 1-94): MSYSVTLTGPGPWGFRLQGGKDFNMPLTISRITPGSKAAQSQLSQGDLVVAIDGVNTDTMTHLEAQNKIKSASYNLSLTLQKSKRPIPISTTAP
row,Binder,pKd
1,"PVRVCEETSL [OTULIN, Q96BN8]",below the threshold
2,"FHPLGADSQV [SLC2A1, P11166]",below the threshold

# Molecular target: T8, DLG3_1, Q92796
# Experiment: holdup assay
# Parameters: key: below the threshold = too weak to quantify, mostly under pKd 3.1 to 4
# Conditions: plain residues with an end cap or a label only (N-terminal biotin on a linker: ttds)
row,Binder,pKd
1,"PVRVCEETSL [OTULIN, Q96BN8]",3.75
2,"FHPLGADSQV [SLC2A1, P11166]",below the threshold

# Molecular target: T9, ARHGEF11, O15085
# Experiment: holdup assay
# Parameters: key: below the threshold = too weak to quantify, mostly under pKd 3.1 to 4
# Conditions: plain residues with an end cap or a label only (N-terminal biotin on a linker: ttds)
row,Binder,pKd
1,"PVRVCEETSL [OTULIN, Q96BN8]",4.63
2,"FHPLGADSQV [SLC2A1, P11166]",below the threshold

# Molecular target: MAGI2_4, Q86UL8
# Experiment: holdup assay
# Parameters: key: below the threshold = too weak to quantify, mostly under pKd 3.1 to 4
# Conditions: plain residues with an end cap or a label only (N-terminal biotin on a linker: ttds)
# MAGI2_4, Q86UL8, sequence (Q86UL8 772-865): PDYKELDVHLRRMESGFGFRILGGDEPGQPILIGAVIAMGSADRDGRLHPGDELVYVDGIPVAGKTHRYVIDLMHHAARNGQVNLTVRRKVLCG
row,Binder,pKd
1,"PVRVCEETSL [OTULIN, Q96BN8]",below the threshold
2,"FHPLGADSQV [SLC2A1, P11166]",below the threshold

# Molecular target: DLG1_1, Q12959
# Experiment: holdup assay
# Parameters: key: below the threshold = too weak to quantify, mostly under pKd 3.1 to 4
# Conditions: plain residues with an end cap or a label only (N-terminal biotin on a linker: ttds)
row,Binder,pKd
1,"PVRVCEETSL [OTULIN, Q96BN8]",4.35
2,"FHPLGADSQV [SLC2A1, P11166]",below the threshold

# Molecular target: MAGI1_2, Q96QZ7
# Experiment: holdup assay
# Parameters: key: below the threshold = too weak to quantify, mostly under pKd 3.1 to 4
# Conditions: plain residues with an end cap or a label only (N-terminal biotin on a linker: ttds)
# MAGI1_2, Q96QZ7, sequence (Q96QZ7 456-580): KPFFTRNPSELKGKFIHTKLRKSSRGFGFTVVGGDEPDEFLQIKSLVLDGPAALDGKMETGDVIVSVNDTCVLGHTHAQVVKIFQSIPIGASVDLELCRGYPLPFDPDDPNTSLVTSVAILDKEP
row,Binder,pKd
1,"PVRVCEETSL [OTULIN, Q96BN8]",4.01
2,"FHPLGADSQV [SLC2A1, P11166]",below the threshold

# Molecular target: T10, SNTG1, Q9NSN8
# Experiment: holdup assay
# Parameters: key: below the threshold = too weak to quantify, mostly under pKd 3.1 to 4
# Conditions: plain residues with an end cap or a label only (N-terminal biotin on a linker: ttds)
row,Binder,pKd
1,"PVRVCEETSL [OTULIN, Q96BN8]",4.28
2,"FHPLGADSQV [SLC2A1, P11166]",3.88

# Molecular target: FRMPD4, Q14CM0
# Experiment: holdup assay
# Parameters: key: below the threshold = too weak to quantify, mostly under pKd 3.1 to 4
# Conditions: plain residues with an end cap or a label only (N-terminal biotin on a linker: ttds)
# FRMPD4, Q14CM0, sequence (Q14CM0 67-160): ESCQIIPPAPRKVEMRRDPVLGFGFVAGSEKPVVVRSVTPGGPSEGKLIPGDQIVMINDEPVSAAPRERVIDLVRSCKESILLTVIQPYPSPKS
row,Binder,pKd
1,"PVRVCEETSL [OTULIN, Q96BN8]",4.59
2,"FHPLGADSQV [SLC2A1, P11166]",below the threshold

# Molecular target: Inadl_2, Q8NI35
# Experiment: holdup assay
# Parameters: key: below the threshold = too weak to quantify, mostly under pKd 3.1 to 4
# Conditions: plain residues with an end cap or a label only (N-terminal biotin on a linker: ttds)
# Inadl_2, Q8NI35, sequence (Q8NI35 238-335): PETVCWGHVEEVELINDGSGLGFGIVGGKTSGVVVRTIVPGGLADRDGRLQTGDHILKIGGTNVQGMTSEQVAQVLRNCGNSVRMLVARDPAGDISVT
row,Binder,pKd
1,"PVRVCEETSL [OTULIN, Q96BN8]",below the threshold
2,"FHPLGADSQV [SLC2A1, P11166]",below the threshold

# Molecular target: Inadl_5, Q8NI35
# Experiment: holdup assay
# Parameters: key: below the threshold = too weak to quantify, mostly under pKd 3.1 to 4
# Conditions: plain residues with an end cap or a label only (N-terminal biotin on a linker: ttds)
# Inadl_5, Q8NI35, sequence (Q8NI35 673-780): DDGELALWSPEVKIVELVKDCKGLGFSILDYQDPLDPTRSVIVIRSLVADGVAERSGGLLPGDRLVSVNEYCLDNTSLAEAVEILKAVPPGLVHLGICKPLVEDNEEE
row,Binder,pKd
1,"PVRVCEETSL [OTULIN, Q96BN8]",3.54
2,"FHPLGADSQV [SLC2A1, P11166]",below the threshold

# Molecular target: MAGI2_6, Q86UL8
# Experiment: holdup assay
# Parameters: key: below the threshold = too weak to quantify, mostly under pKd 3.1 to 4
# Conditions: plain residues with an end cap or a label only (N-terminal biotin on a linker: ttds)
# MAGI2_6, Q86UL8, sequence (Q86UL8 1141-1229): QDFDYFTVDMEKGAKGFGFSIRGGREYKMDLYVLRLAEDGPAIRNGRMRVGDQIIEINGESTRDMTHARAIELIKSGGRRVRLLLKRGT
row,Binder,pKd
1,"PVRVCEETSL [OTULIN, Q96BN8]",4.06
2,"FHPLGADSQV [SLC2A1, P11166]",3.99

# Molecular target: GRIP2_5, Q9C0E4
# Experiment: holdup assay
# Parameters: key: below the threshold = too weak to quantify, mostly under pKd 3.1 to 4
# Conditions: plain residues with an end cap or a label only (N-terminal biotin on a linker: ttds)
# GRIP2_5, Q9C0E4, sequence (Q9C0E4 544-642): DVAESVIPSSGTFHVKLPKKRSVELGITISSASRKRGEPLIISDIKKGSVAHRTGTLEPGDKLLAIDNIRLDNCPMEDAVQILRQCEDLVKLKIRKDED
row,Binder,pKd
1,"PVRVCEETSL [OTULIN, Q96BN8]",below the threshold
2,"FHPLGADSQV [SLC2A1, P11166]",below the threshold

# Molecular target: T11, NHERF3_1, Q5T2W1
# Experiment: holdup assay
# Parameters: key: below the threshold = too weak to quantify, mostly under pKd 3.1 to 4
# Conditions: plain residues with an end cap or a label only (N-terminal biotin on a linker: ttds)
row,Binder,pKd
1,"PVRVCEETSL [OTULIN, Q96BN8]",5.92
2,"FHPLGADSQV [SLC2A1, P11166]",below the threshold

# Molecular target: DLG4_1, P78352
# Experiment: holdup assay
# Parameters: key: below the threshold = too weak to quantify, mostly under pKd 3.1 to 4
# Conditions: plain residues with an end cap or a label only (N-terminal biotin on a linker: ttds)
# DLG4_1, P78352, sequence (P78352 62-152): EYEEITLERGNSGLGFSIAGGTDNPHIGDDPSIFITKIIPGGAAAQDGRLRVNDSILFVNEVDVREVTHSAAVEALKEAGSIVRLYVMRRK
row,Binder,pKd
1,"PVRVCEETSL [OTULIN, Q96BN8]",4.11
2,"FHPLGADSQV [SLC2A1, P11166]",3.51
